Biological target: T1, human immunoglobulin-like transcript 3 (ILT3) (human, UniProt Q8NHJ6 22-448)
T1 construct: whole, on cells; also called LILRB4; LIR5
Assay: receptor occupancy in blood samples of trial participants dosed in vivo (Q3W)

B1: Humanized anti-ILT3 mAb (52B8 VH1 M64V/VL5 N34Q) IgG4 S228P/Kappa (antibody, V domains shown)
VH: EVQLVESGGGLVQPGGSLRLSCAASGFTFSNYGMSWVRQAPGKGLEWVATISGGGDYTNYPDSVRGRFTISRDNAKNSLYLQMNSLRAEDTAVYYCGRRLWFRSLYYAMDYWGQGTLVTVSS
VL: DIQLTQSPSSLSASVGDRVTITCRASEKVDSFGQSFMHWYQQKPGKAPKLLIYLTSNLDSGVPSRFSGSGSGTDFTLTISSLQPEDFATYYCQQNNEDPYTFGQGTKLEIKR
notes: also called mAb number 46; mAb No. 46
  binding result: binds
